Results published in PMC11369088.

Biological target: C-terminal FLAG-tag TEX264 (UniProt Q9Y6I9)
Experiment: co-IP; FLAG co-IP of FLAG-tagged ER-phagy receptor from HEK293 Tg-NLuc cells in TNI buffer (50 mM Tris pH 7.5, 150 mM NaCl, 0.5% IGEPAL CA-630), four washes; Tg-NLuc on the resin read by nano-glo luciferase assay; against GFP control

Sequence of UniProt Q9Y6I9 (Q9Y6I9 whole entry): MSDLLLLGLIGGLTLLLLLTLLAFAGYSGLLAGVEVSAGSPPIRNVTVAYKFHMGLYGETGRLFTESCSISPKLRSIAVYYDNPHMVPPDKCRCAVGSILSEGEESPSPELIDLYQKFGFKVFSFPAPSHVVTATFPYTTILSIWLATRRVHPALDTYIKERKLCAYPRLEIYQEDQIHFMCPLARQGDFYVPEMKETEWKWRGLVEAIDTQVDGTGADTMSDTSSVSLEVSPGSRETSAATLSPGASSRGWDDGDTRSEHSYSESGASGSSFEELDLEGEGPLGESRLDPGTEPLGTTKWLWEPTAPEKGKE

fold interaction against A2234D Tg: 2 fold
fold interaction against WT Tg: 3 fold
Substance: nanoluciferase-tagged thyroglobulin C1264R (C1264R Tg-NLuc), P01266 20-2768
